Test results published in the supplement of paper PMC10724198.
± gives the standard deviation of the averaged measurements.

system: Saccharomyces cerevisiae; experiment: protein stability index of tFT-peptide fusion (C-terminal peptide) (PSI (0-1 scale)); higher = more stable (slower turnover); conditions: genetic background: wild type; temperature: 30 C
Experimental: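 Multiplexed protein stability (MPS) profiling in S. cerevisiae. Random 12-aa peptides (tFT-X12 library) are fused to the C-terminus of a sfGFP-mCherry tandem fluorescent timer, after mCherry and a GGGS linker. Cells are FACS-sorted into 8 mCherry/sfGFP bins and deep-sequenced. The protein stability index (PSI) is the read-weighted bin average, scaled from 0 (unstable) to 1 (stable). Only peptides with >10 reads are reported; cells were grown at 30 °C in SC-His with glucose.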
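Further: PSI is a weighted mean of sequencing reads over stability bins, variants kept only with over 10 reads, mCherry proximal and sfGFP distal, peptide attached via GGGS linker.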

**Q.** For RNVFVPFMRGSP, which protein stability index is on record?
**A.** 0.737 ± 0.077

**Q.** Which protein stability index does the source give for ECSFAGIWVDLG here?
**A.** 0.689 ± 0.047

**Q.** For GYEDTLKKILEI, which protein stability index is on record?
**A.** 0.673 ± 0.099

**Q.** For FLNLPLSAFVLL, which protein stability index is on record?
**A.** 0.583 ± 0.062

**Q.** How did the protein stability index turn out when TSRNFPGLHDNY was run?
**A.** 0.673 ± 0.052

**Q.** SRRWRPDSSRIQ was tested. Which protein stability index did it give?
**A.** 0.667 ± 0.1

**Q.** LASREFGVFCIW was tested. Which protein stability index did it give?
**A.** 0.648 ± 0.057

**Q.** Which protein stability index does the source give for YCGSVCRPYSYL here?
**A.** 0.695 ± 0.057

**Q.** Which protein stability index does the source give for PLRRPFSSPFLL here?
**A.** 0.59 ± 0.067

**Q.** For GPVLAVTRIVCK, which protein stability index is on record?
**A.** 0.552 ± 0.0096

**Q.** PSFPSLLPPPPT was tested. Which protein stability index did it give?
**A.** 0.703 ± 0.025

**Q.** FGCSRRERKGRG was tested. Which protein stability index did it give?
**A.** 0.826 ± 0.016

**Q.** For SGSFPSLALLSS, which protein stability index is on record?
**A.** 0.642 ± 0.042

**Q.** Which protein stability index does the source give for GSSPCHNEESGT here?
**A.** 0.693 ± 0.014

**Q.** With PPAPPSPPHPPL as the sequence, how does the protein stability index read?
**A.** 0.7133 ± 0.0036

**Q.** GLPWRRVGGGAG was tested. Which protein stability index did it give?
**A.** 0.644 ± 0.013

**Q.** Which protein stability index does the source give for RADIRYCNCRGQ here?
**A.** 0.607 ± 0.045

**Q.** For VIKRQSERRYLV, which protein stability index is on record?
**A.** 0.587 ± 0.039

**Q.** Which protein stability index does the source give for FGDRGLGIIYFK here?
**A.** 0.7277 ± 0.0023

**Q.** PPLPSPPAPPAP was tested. Which protein stability index did it give?
**A.** 0.655 ± 0.0086

**Q.** ALASPPPTPSLV was tested. Which protein stability index did it give?
**A.** 0.638 ± 0.0068

**Q.** Which protein stability index does the source give for RPFSMGSNNIIR here?
**A.** 0.7 ± 0.022

**Q.** For VAVIGAPPGNSR, which protein stability index is on record?
**A.** 0.672 ± 0.029

**Q.** For WDNGQVRLLRYV, which protein stability index is on record?
**A.** 0.593 ± 0.015

**Q.** How did the protein stability index turn out when GAGSGTRQPKPR was run?
**A.** 0.617 ± 0.0076

**Q.** Which protein stability index does the source give for VLIAIIRYGPYT here?
**A.** 0.538 ± 0.0021

**Q.** How did the protein stability index turn out when PLRTCPCAPLPS was run?
**A.** 0.689 ± 0.012

**Q.** For SRPLPPPLPPPP, which protein stability index is on record?
**A.** 0.628 ± 0.025

**Q.** LCPPLPPSPPRS was tested. Which protein stability index did it give?
**A.** 0.70073 ± 0.00018

**Q.** Which protein stability index does the source give for KELQKKRIKKKN here?
**A.** 0.733 ± 0.078

**Q.** Which protein stability index does the source give for SHPPPALVPLFK here?
**A.** 0.678 ± 0.016

**Q.** Which protein stability index does the source give for PRSSLPPPPSLP here?
**A.** 0.686 ± 0.038

**Q.** For SLLPLSLLSSPF, which protein stability index is on record?
**A.** 0.664 ± 0.0072

**Q.** With GCVSAVSKCFFL as the sequence, how does the protein stability index read?
**A.** 0.751 ± 0.1

**Q.** For SGVHFFLRTGAL, which protein stability index is on record?
**A.** 0.692 ± 0.016

**Q.** How did the protein stability index turn out when PPPPANVSHHAP was run?
**A.** 0.593 ± 0.073

**Q.** How did the protein stability index turn out when LAWFDLAPSTLP was run?
**A.** 0.827 ± 0.14

**Q.** For ATTQLPPPGGMC, which protein stability index is on record?
**A.** 0.695 ± 0.024

**Q.** With SKFNSLNNHRKG as the sequence, how does the protein stability index read?
**A.** 0.655 ± 0.033

**Q.** How did the protein stability index turn out when VNPWLRCSFRFW was run?
**A.** 0.6881 ± 0.0066

**Q.** For GCGSWAWWCGRG, which protein stability index is on record?
**A.** 0.894 ± 0.08

**Q.** For KHKKKKKEYKKK, which protein stability index is on record?
**A.** 0.729 ± 0.03

**Q.** For LSPPPLSPPSHP, which protein stability index is on record?
**A.** 0.723 ± 0.0092

**Q.** APVGYNTVASAC was tested. Which protein stability index did it give?
**A.** 0.685 ± 0.042

**Q.** Which protein stability index does the source give for GVWGGVGGWGVA here?
**A.** 0.697 ± 0.053

**Q.** PCFLLPLPHTPP was tested. Which protein stability index did it give?
**A.** 0.707 ± 0.024

**Q.** How did the protein stability index turn out when GARHTALCCPMG was run?
**A.** 0.623 ± 0.041

**Q.** For PAPASDYLRGRR, which protein stability index is on record?
**A.** 0.691 ± 0.049

**Q.** For RDLSEGRSPLGI, which protein stability index is on record?
**A.** 0.661 ± 0.081

**Q.** For RGVCVVGGCWLV, which protein stability index is on record?
**A.** 0.609 ± 0.016

**Q.** With KLIVPCSPIRLS as the sequence, how does the protein stability index read?
**A.** 0.6929 ± 0.0043

**Q.** Which protein stability index does the source give for QMGGGGEVGAEG here?
**A.** 0.724 ± 0.009

**Q.** GVWFWRLKGEGN was tested. Which protein stability index did it give?
**A.** 0.713 ± 0.045

**Q.** PNVAIMSGGQTV was tested. Which protein stability index did it give?
**A.** 0.6912 ± 0.0059

**Q.** For AFLVGYSGVGYV, which protein stability index is on record?
**A.** 0.687 ± 0.032

**Q.** WGGFGLGVCAKC was tested. Which protein stability index did it give?
**A.** 0.616 ± 0.072

**Q.** For ALRGRTTPPSHT, which protein stability index is on record?
**A.** 0.726 ± 0.086

**Q.** For GPPPPSPRPTRR, which protein stability index is on record?
**A.** 0.723 ± 0.031

**Q.** How did the protein stability index turn out when LVIGTTLSSLML was run?
**A.** 0.742 ± 0.066

**Q.** VTLGQNGVSLRS was tested. Which protein stability index did it give?
**A.** 0.596 ± 0.071

**Q.** With TIGREENKIANI as the sequence, how does the protein stability index read?
**A.** 0.651 ± 0.016

**Q.** How did the protein stability index turn out when GDRYFGTPAPSH was run?
**A.** 0.757 ± 0.021

**Q.** How did the protein stability index turn out when PPFLYVLVSSIL was run?
**A.** 0.54 ± 0.15

**Q.** For RLGWGGVGVAGV, which protein stability index is on record?
**A.** 0.683 ± 0.013

**Q.** How did the protein stability index turn out when YTYPINPLDQTR was run?
**A.** 0.7196 ± 0.0027

**Q.** How did the protein stability index turn out when CSLTLPFFFGSL was run?
**A.** 0.6771 ± 0.0026

**Q.** Which protein stability index does the source give for GSFVEEVFRVKS here?
**A.** 0.6646 ± 0.0061

**Q.** ARRGATRGHAHV was tested. Which protein stability index did it give?
**A.** 0.684 ± 0.046

**Q.** Which protein stability index does the source give for GYGRLVSSQSFR here?
**A.** 0.888 ± 0.16

**Q.** How did the protein stability index turn out when PLIDRSTCSLSG was run?
**A.** 0.6366 ± 0.0032

**Q.** For FRLQSLFPYVVK, which protein stability index is on record?
**A.** 0.604 ± 0.047

**Q.** KKQKKKQNKQKT was tested. Which protein stability index did it give?
**A.** 0.731 ± 0.026

**Q.** WVGGGRAKAKRE was tested. Which protein stability index did it give?
**A.** 0.696 ± 0.054

**Q.** STSLLTRTSSKL was tested. Which protein stability index did it give?
**A.** 0.792 ± 0.015

**Q.** GGLWLCFVPEVM was tested. Which protein stability index did it give?
**A.** 0.563 ± 0.0077

**Q.** How did the protein stability index turn out when VFSCWQFAGGGY was run?
**A.** 0.69 ± 0.037

**Q.** For LFANGSGSSTSR, which protein stability index is on record?
**A.** 0.715 ± 0.031

**Q.** KHSRKPTHKKLI was tested. Which protein stability index did it give?
**A.** 0.69 ± 0.016

**Q.** VLSLLPFSPFSP was tested. Which protein stability index did it give?
**A.** 0.735 ± 0.096

**Q.** With FFTFTMSIPRWL as the sequence, how does the protein stability index read?
**A.** 0.617 ± 0.055

**Q.** EKKKKTKYKKKK was tested. Which protein stability index did it give?
**A.** 0.735 ± 0.052

**Q.** For EKNDMKKKKNRQ, which protein stability index is on record?
**A.** 0.713 ± 0.035

**Q.** For LFPPAFSAFLPF, which protein stability index is on record?
**A.** 0.725 ± 0.024

**Q.** How did the protein stability index turn out when SRLRITIRNVHS was run?
**A.** 0.629 ± 0.048

**Q.** For GRDCSSHFIVPL, which protein stability index is on record?
**A.** 0.713 ± 0.029

**Q.** With GTLDTDAGTINH as the sequence, how does the protein stability index read?
**A.** 0.683 ± 0.025

**Q.** LCHESFDGTFVN was tested. Which protein stability index did it give?
**A.** 0.72 ± 0.022

**Q.** Which protein stability index does the source give for VVECGERWWCLT here?
**A.** 0.705 ± 0.032

**Q.** With LESLPSPLHLPM as the sequence, how does the protein stability index read?
**A.** 0.629 ± 0.026

**Q.** For LRVFKVCSGISG, which protein stability index is on record?
**A.** 0.642 ± 0.045

**Q.** How did the protein stability index turn out when SHPSALPPISAG was run?
**A.** 0.734 ± 0.071

**Q.** How did the protein stability index turn out when SQMGRGRQRGDR was run?
**A.** 0.741 ± 0.024

**Q.** With VMGAGGGSRSRV as the sequence, how does the protein stability index read?
**A.** 0.677 ± 0.037

**Q.** How did the protein stability index turn out when SPPPPTPPPPPA was run?
**A.** 0.718 ± 0.045

**Q.** How did the protein stability index turn out when VFCSCTARPPLR was run?
**A.** 0.717 ± 0.023

**Q.** GVGAALDVWRRR was tested. Which protein stability index did it give?
**A.** 0.696 ± 0.033

**Q.** With HPTRHPPTPPCY as the sequence, how does the protein stability index read?
**A.** 0.704 ± 0.018

**Q.** How did the protein stability index turn out when SSRVALRIPGIG was run?
**A.** 0.678 ± 0.024
